Results from patent publication US20220362394A1 (SUTRO BIOPHARMA, published 2022).

T1: human BCMA-Fc (human, UniProt Q02223 1-54)
T1 construct: Bought from R&D Systems; also called huBCMA-Fc; not shown: Fc part not described
T1 sequence: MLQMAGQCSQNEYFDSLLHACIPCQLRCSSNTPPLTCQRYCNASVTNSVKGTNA

T2: human BCMA on cells (human, UniProt Q02223 1-184)
T2 construct: also called hBCMA; BCMA on NCI-H929, ARP-1, OPM-2, U266B1, MM.1S, RPMI-8226 cells
T2 sequence: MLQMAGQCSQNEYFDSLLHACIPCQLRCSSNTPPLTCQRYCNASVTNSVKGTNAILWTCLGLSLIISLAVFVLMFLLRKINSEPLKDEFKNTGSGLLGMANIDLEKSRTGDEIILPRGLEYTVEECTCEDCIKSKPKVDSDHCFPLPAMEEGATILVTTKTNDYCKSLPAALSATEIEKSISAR


Legend:
cynomolgus BCMA on cells = cynomolgus BCMA on cells (cynomolgus monkey, UniProt Q02223 1-184 (human entry)); experiment: FACS, 293T-cynoBCMA cells
Procedure: (§1) Variants for which sufficient protein was purified in secondary screening were tested in a fluorescence-activated cell sorting (FACS) cell-binding assay. […] 6-12 point dilutions of anti-BCMA variants starting from concentrations of about 100-200 nM antibody were dispensed into each well using a BioMekFX (Beckman Coulter). Cells were then incubated on ice for 1 hr, washed with FACS buffer and incubated for 1 hr on ice with […] FACS buffer containing 2.5 μg/ml Alexa647-conjugated Goat Anti-Human IgG dispensed using BioMekFX (Beckman Coulter). Cells were then washed 2× with FACS buffer and fixed for 10 minutes in […] PBS with 2% paraformaldehyde (PFA) prior to fluorescence detection. Samples were acquired using a Beckton Dickinson LSRII FACS. Geometric Mean Fluorescence Intensity of BCMA antibody binding was analyzed using FlowJo® software (Tree Star, Inc.).

cyno BCMA-Fc = target: T3, cyno BCMA-Fc (cynomolgus monkey, UniProt Q02223 1-54 (human entry)); experiment: ELISA, coated cynoBCMA-Fc
T3 construct: Custom protein production; also called cynomolgus BCMA-Fc; not shown: Fc part not described

human BCMA-Fc [1] = target: T1, human BCMA-Fc; experiment: SPR Biacore, antibody captured, 25 C
Procedure: Anti-Fab or anti-Fc polyclonal antibodies were immobilized onto a CM5 chip (GE Life Sciences) using amine coupling chemistry (from Amine Coupling Kit, GE Life Sciences). The immobilization steps were carried out at a flow rate of 25 μL/min in 1×HBS-EP+ buffer (GE Life Sciences; 10× Stock diluted before use). The sensor surfaces were activated for 7 min with a mixture of NHS (0.05 M) and EDC (0.2 M). The anti-Fab or anti-Fc antibodies were injected over all 4 flow cells at a concentration of 25 μg/ml in 10 mM sodium acetate, pH 4.5, for 7 min. Ethanolamine (1 M, pH 8.5) was injected for 7 min to block any remaining activated groups.
Off-rate and kinetic binding experiments were performed at 25° C. using 1×HBS-EP+ buffer. […] After capturing ligand (antibody) on the anti-Fab or anti-Fc surface, the analyte (human BCMA-Fc, cyno BCMA-Fc, or human BCMA from R&D Systems, custom protein production, or Sigma Aldrich, respectively) was bound for 180 seconds, followed by a 600 second dissociation phase at a flow rate of 50 μL/min. Between each ligand capture and analyte binding cycle, regeneration was carried out using 2 injections of 10 mM glycine pH 2.0 for 30 seconds at 30 μL/min, followed by a 30 second buffer wash step.
The data was fit with the Biacore T200 Evaluation software, using a 1-1 Langmuir binding model. KD (affinity, nM) was determined as a ratio of the kinetic rate constants calculated from the fits of the association and dissociation phases.

human BCMA on cells = target: T2, human BCMA on cells; experiment: FACS, NCI-H929 cells
Procedure: as §1

human BCMA-Fc [2] = target: T1, human BCMA-Fc; experiment: ELISA, coated huBCMA-Fc

cynomolgus BCMA on cells, sequence (Q02223 other isoform, or with tags, fused parts or gaps): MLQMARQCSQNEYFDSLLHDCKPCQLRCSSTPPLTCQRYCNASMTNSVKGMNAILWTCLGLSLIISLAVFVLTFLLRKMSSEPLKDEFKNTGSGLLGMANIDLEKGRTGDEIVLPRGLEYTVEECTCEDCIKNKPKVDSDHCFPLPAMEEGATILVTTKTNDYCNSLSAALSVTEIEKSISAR

Row | Binder | Bmax (cynomolgus BCMA on cells) | Kd (cynomolgus BCMA on cells) | Bmax (cyno BCMA-Fc) | EC50 (cyno BCMA-Fc) | Kd (human BCMA-Fc [1]) | koff (human BCMA-Fc [1]) | kon (human BCMA-Fc [1]) | Bmax (human BCMA on cells) | Kd (human BCMA on cells) | Bmax (human BCMA-Fc [2]) | EC50 (human BCMA-Fc [2])
1 | 2290-A02 (antibody, V domains shown, also called Antibody 22) VH: EVQLVESGGGLVQPGGSLRLSCAASGFNISTRWIHWVRQAPGKGLEWVGVITPSAGYTHYADSVKGRFTISAGTSKNTAYLQMNSLRAEDTAVYYCARDLGSRYWVGVFDYWGQGTLVTVSS VL: not shown | 70300 MFI | 2.3 nM | 4.47e+06 | 0.4 nM | 0.567 nM | 0.000131 s⁻¹ | 231000 M⁻¹ s⁻¹ | 33600 MFI | 4.9 nM | 4.87e+06 | 0.4 nM
2 | 2290-C07 (antibody, V domains shown, also called Antibody 19) VH: EVQLVESGGGLVQPGGSLRLSCAASGFNITYDWIHWVRQAPGKGLEWVGVITPFDGYTYYADSVKGHFTISADTSKNTAYLQMNSLRAEDTAVYYCARDMGVGYWVGFSDYWGQGTLVTVSS VL: not shown | 78100 MFI | 6.7 nM | 3.81e+06 | 0.2 nM | 0.612 nM | 0.000221 s⁻¹ | 361000 M⁻¹ s⁻¹ | – | – | 4.12e+06 | 0.2 nM
3 | 2290-C08 (antibody, V domains shown, also called Antibody 21) VH: EVQLVESGGGLVQPGGSLRLSCAASGFNIQPYWIHWVRQAPGKGLEWVGVITPPSGYTYYADSVKGRFTISADTSKNTAYLQMNSLRAEDTAVYYCARDWGVGYWVGFSDYWGQGTLVTVSS VL: not shown | 71000 MFI | 2.3 nM | 4.14e+06 | 0.2 nM | 0.378 nM | 0.000252 s⁻¹ | 666000 M⁻¹ s⁻¹ | 37800 MFI | 11 nM | 4.33e+06 | 0.3 nM
4 | 2290-D02 (antibody, V domains shown, also called Antibody 18) VH: EVQLVESGGGLVQPGGSLRLSCAASGFNISSYWIHWVRQAPGKGLEWMGVITPAAGYTYYADSVKGRFTISADTSKNTAYLQMNSLRAEDTAVYYCARDLGHRYWVGVFDYWGQGTLVTVSS VL: not shown | 75800 MFI | 3.5 nM | 3.91e+06 | 0.2 nM | 0.949 nM | 0.000277 s⁻¹ | 292000 M⁻¹ s⁻¹ | 33600 MFI | 19.2 nM | 4.54e+06 | 0.3 nM
5 | 2290-D05 (antibody, V domains shown, also called Antibody 20) VH: EVQLVESGGGLVQPGGSLRLSCAASGFNIASRWIHWVRQAPGKGLEWVGVITPSAGYTYYADSVKGRFTISADTSKNTAYLQMNSLRAEDTAVYYCARDLGYGYWVGFSDYWGQGTLVTVSS VL: not shown | 57600 MFI | 1.7 nM | 3.61e+06 | 0.2 nM | 0.937 nM | 0.000446 s⁻¹ | 476000 M⁻¹ s⁻¹ | 21800 MFI | 4.6 nM | 3.94e+06 | 0.3 nM
6 | 2290-G01 (antibody, V domains shown, also called Antibody 17) VH: EVQLVESGGGLVQPGGSLRLSCAASGFNISPYWIHWVRQAPGKGLEWVGVITPPSGFTYYADSVKGRFTISADTSKNTAYLQVNSLRAEDTAVYYCARDLGVGYWVGFSDYWGQGTLVTVSS VL: not shown | 77100 MFI | 4.7 nM | 4.6e+06 | 0.3 nM | 0.445 nM | 0.000318 s⁻¹ | 714000 M⁻¹ s⁻¹ | – | – | 4.83e+06 | 0.3 nM
7 | 2213-A06 (antibody, V domains shown, also called Antibody 23) VH: EVQLVESGGGLVQPGGSLRLSCAASGFNISSYAIHWVRQAPGKGLEWVGVISPYGGYTEYADSVKGRFTISADTSKNTAYLQMNSLRAEDTAVYYCARDFYDRYSTYVLDYWGQGTLVTVSS VL: not shown | 3620 MFI | 15.1 nM | 2.23e+06 | 39 nM | 2.08 nM | 0.00283 s⁻¹ | 1.36e+06 M⁻¹ s⁻¹ | 2510 MFI | 5.3 nM | 3.68e+06 | 0.2 nM
8 | 2291-G05 (antibody, V domains shown, also called Antibody 24) VH: EVQLVESGGGLVQPGGSLRLSCAASGFNIAAYTIHWVRQAPGKGLEWVGWISPYGGYTEYADSVKGRFTISADTSKNTAYLQMNSLRAEDTAVYYCARDFHDRYATFVLDYWGQGTLVTVSS VL: not shown | 62700 MFI | 1 nM | 3.38e+06 | 0.09 nM | 0.962 nM | 0.000423 s⁻¹ | 440000 M⁻¹ s⁻¹ | 23200 MFI | 1.4 nM | 3.91e+06 | 0.13 nM
9 | 2291-D07 (antibody, V domains shown, also called Antibody 26) VH: EVQLVESGGGLVQPGGSLRLSCAASGFNIKDTYIHWVRQAPGKGLEWVGVISPYDGYTEYADSVKGRFTISADTSKNTAYLQMNSLRAEDTAVYYCAHDFYDRYSTYVLDYWGQGTLVTVSS VL: not shown | 67900 MFI | 0.5 nM | 3.94e+06 | 0.03 nM | 0.948 nM | 0.000414 s⁻¹ | 437000 M⁻¹ s⁻¹ | 28700 MFI | 3.8 nM | 4.08e+06 | 0.03 nM
10 | 2291-F10 (antibody, V domains shown, also called Antibody 27) VH: EVQLVESGGGLVQPGGSLRLSCAASGFNIDPYTIHWVRQAPGKGLEWVGWISPYDGYTEYADSVKGRFTISADTSKNTAYLQMNSLRAEDTAVYYCARDYYDRYSTYVLDYWGRGTLVTVSS VL: not shown | 66500 MFI | 0.7 nM | 3.43e+06 | 0.06 nM | 0.178 nM | 9.65e-05 s⁻¹ | 541000 M⁻¹ s⁻¹ | 33800 MFI | 5.4 nM | 3.72e+06 | 0.1 nM
11 | 2291-E06 (antibody, V domains shown, also called Antibody 25) VH: EVQLVESGGGLVQPGGSLRLSCAASGFNISPYTIHWVRQAPGKGLEWVAHIFPSGGYTDYADSVKGRFTISADTSKNTAYLQMNSLRAEDTAVYYCARDFYDRYATYVLDYWGQGTLVTVSS VL: not shown | 68300 MFI | 1.4 nM | 3.36e+06 | 0.13 nM | 0.763 nM | 0.000357 s⁻¹ | 468000 M⁻¹ s⁻¹ | 34400 MFI | 5.8 nM | 4.11e+06 | 0.21 nM
12 | 2291-A04 (antibody, V domains shown, also called Antibody 28) VH: EVQLVESGGGLVQPGGSLRLSCAASGFNISSYGIHWVRQAPGKGLEWVGFISPYDGYTEYADSVKGRFTISAGTSKNTAYLQMNSLRAEDTAVYYCARDFNDRYFTYVLDYWGQGTLVTVSS VL: not shown | 63800 MFI | 1.2 nM | 4.23e+06 | 0.2 nM | 0.716 nM | 0.000349 s⁻¹ | 487000 M⁻¹ s⁻¹ | 33900 MFI | 5 nM | 4.6e+06 | 0.23 nM
13 | 2137-A05 (antibody, V domains shown, also called Antibody 14) VH: EVQLVESGGGLVQPGGSLRLSCAASGFNINNSYIHWVRQAPGKGLEWVGWIYPYSGYTNYADSVKGRFTISADTSKNTAYLQMNSLRAEDTAVYYCARDYGPWYGTGVLDYWGQGTLVTVSS VL: not shown | 1910 MFI | 18.3 nM | 2.2e+06 | 419 nM | 2.36 nM | 0.00332 s⁻¹ | 1.41e+06 M⁻¹ s⁻¹ | 2690 MFI | 10 nM | 3.3e+06 | 0.52 nM
14 | 2288-A03 (antibody, V domains shown, also called Antibody 15) VH: EVQLVESGGGLVQPGGSLRLSCAASGFNINNSWIHWVRQAPGKGLEWVGWIYPYIGFTEYADSVKGRFTISADTSKNTAYLQMNSLRAEDTAVYYCARDYDLRYLTGVLDYWGQGTLVTVSS VL: not shown | 46800 MFI | 1.8 nM | 3.02e+06 | 0.57 nM | 0.557 nM | 0.000516 s⁻¹ | 927000 M⁻¹ s⁻¹ | 16300 MFI | 4.8 nM | 4.24e+06 | 0.56 nM
